One assay relates to α1 adrenergic receptor. Conditions: cited from earlier work.
In the next assay the test system is rat mu opioid receptor. Kind of assay: SRE-Luc/Gq5i luciferase reporter assay in HEK293 cells. The settings on record: SRE + Gq5i, HEK293 cells. It is filed as cell-based. The text has this: A positive assay for Gαi coupling (i.e., one that yields an increase in luciferase activity upon receptor activation, instead of a negative assay, one that yields a decrease in luciferase activity upon receptor activation), provides a detectable output signal and less interassay variation. It was hypothesized that Gαi coupling could be detected by altering the signaling pathway generated by Gαi coupled receptors. A chimeric G protein (Gqi5, Broach and Thorner, Nature 384 (Suppl.): 14-16 (1996)) that contains the entire Gαq protein having five C-terminal amino acids from Gαi attached to the C-terminus of Gαq has been generated. This chimeric G protein is recognized as Gαi by Gαi coupled receptors, but switches the receptor induced signaling from Gαi to Gαq. This allows Gαi receptor coupling to be detected using a positive assay by use of the Gαq responsive SMS-Luc or SRE-Luc construct (Stratagene, La Jolla, Calif.). SMS and SRE preferably respond to Gαq mediated inositol and calcium production. Moreover, detection can be carried out in the absence of forskolin pre-stimulation of cells.
Reagents & Solutions: The cell culture media used in the assays described below was Gibco BRL #12100-046. This media was made according to manufacturer's recipe, pH adjusted to 7.2, filtered (0.22 micron pore), and supplemented with 1% Pen/Strep (Gibco #15140-122; 100% penicillin G 10,000 units/ml, and streptomycin 10,000 μg/ml) and 10% fetal bovine serum. Cell culture media lacking 10% fetal bovine serum was also generated. DNA used in the transfection experiments was purified and quantitated by measuring the absorbance at OD260. A LucLite Luciferase Assay Kit (Packard) was used to quantitate luciferase activity. Transfections were carried out using LipofectAMINE Reagent (Gibco #18324-012).
The rat mu opioid receptor is a Gαi coupled receptor. Therefore we chose to use the Gq5i reporter system, described in detail above (Broach and Thorner, supra), which switches the signaling pathway from Gαi to Gαq for reliable positive readout. HEK293 cells were transfected with the reporter construct SRE-Luc, an expression vector containing nucleic acid encoding Gq5i (Broach and Thorner, supra), and an expression vector containing nucleic acid encoding either the wild-type or the Asn150Ala mutant rat mu opioid receptor. Basal and ligand-stimulated luciferase activity was measured. The ligand used in this assay was [D—Ala^2—MePhe^4, Gly-ol^5]enkephalin] (DAMGO). As a negative control, HEK293 cells were transfected with pcDNA1 (empty vector DNA), SRE-Luc, and the expression vector containing nucleic acid encoding Gq5i (Broach and Thorner, supra).
The luciferase assay was carried out as follows. On day 1, HEK293 cells in a T75 flask were washed with 15 ml serum-free media (or PBS), trypsinized with 5 ml 0.05% trypsin-EDTA (Gibco #25300-062), incubated at 37° C. for 3 minutes at which time 6-7 ml complete HEK293 media (Gibco #12100-046) and 10% Fetal Bovine Serum (Intergen #1050-90) were added. Thereafter, cells were collected in 50 ml centrifuge tubes, pelleted at 800-900 rpm (RCF˜275), and resuspend in 20 ml complete media. The cells were counted using a haemocytometer and diluted to 85,000 cells/ml in complete media. Using a repeat pipettor or cell plater, 100 μl of cells were added to each well of a Primaria 96-well plate (Falcon #353872). Cells were then incubated at 37° C., 5% CO2 until use at 48 hours.
On day 3, cells were transfected using LipofectAMINE™ according to the manufacturer's protocol (Gibco #18324-012, Rockville, Md.).
On day 4, cells were stimulated as follows. Ligands for the receptor, either DAMGO or a non-peptide ligand (e.g., naloxone or naltrexone), were diluted to a desired concentration in serum-free media containing 0.15 mM PMSF (or other protease inhibitor(s)). […]

B1: Asp142Ala mutant: α1 adrenergic receptor DRY motif mutant (protein, UniProt P18841 1-515, looked up, variant D142A)
Alpha-1B adrenergic receptor: MNPDLDTGHNTSAPAQWGELKDANFTGPNQTSSNSTLPQLDVTRAISVGLVLGAFILFAIVGNILVILSVACNRHLRTPTNYFIVNLAIADLLLSFTVLPFSATLEVLGYWVLGRIFCDIWAAVDVLCCTASILSLCAISIARYIGVRYSLQYPTLVTRRKAILALLSVWVLSTVISIGPLLGWKEPAPNDDKECGVTEEPFYALFSSLGSFYIPLAVILVMYCRVYIVAKRTTKNLEAGVMKEMSNSKELTLRIHSKNFHEDTLSSTKAKGHNPRSSIAVKLFKFSREKKAAKTLGIVVGMFILCWLPFFIALPLGSLFSTLKPPDAVFKVVFWLGYFNSCLNPIIYPCSSKEFKRAFMRILGCQCRSGRRRRRRRRLGACAYTYRPWTRGGSLERSQSRKDSLDDSGSCMSGSQRTLPSASPSPGYLGRGAQPPLELCAYPEWKSGALLSLPEPPGRRGRLDSGPLFTFKLLGEPESPGTEGDASNGGCDATTDLANGQPGFKSNMPLAPGHF
With B1, the constitutive activity result with α1 adrenergic receptor was “constitutively active”.

B2: Arg143Lys mutant: α1 adrenergic receptor DRY motif mutant (protein, UniProt P18841 1-515, looked up, variant R143K)
Alpha-1B adrenergic receptor: MNPDLDTGHNTSAPAQWGELKDANFTGPNQTSSNSTLPQLDVTRAISVGLVLGAFILFAIVGNILVILSVACNRHLRTPTNYFIVNLAIADLLLSFTVLPFSATLEVLGYWVLGRIFCDIWAAVDVLCCTASILSLCAISIDKYIGVRYSLQYPTLVTRRKAILALLSVWVLSTVISIGPLLGWKEPAPNDDKECGVTEEPFYALFSSLGSFYIPLAVILVMYCRVYIVAKRTTKNLEAGVMKEMSNSKELTLRIHSKNFHEDTLSSTKAKGHNPRSSIAVKLFKFSREKKAAKTLGIVVGMFILCWLPFFIALPLGSLFSTLKPPDAVFKVVFWLGYFNSCLNPIIYPCSSKEFKRAFMRILGCQCRSGRRRRRRRRLGACAYTYRPWTRGGSLERSQSRKDSLDDSGSCMSGSQRTLPSASPSPGYLGRGAQPPLELCAYPEWKSGALLSLPEPPGRRGRLDSGPLFTFKLLGEPESPGTEGDASNGGCDATTDLANGQPGFKSNMPLAPGHF
For B2, the constitutive activity entry in the assay on α1 adrenergic receptor is given as “constitutively active”.

B3: Ala204Val mutant: α1 adrenergic receptor mutant in transmembrane domain V (protein, UniProt P18841 1-515, looked up, variant A204V)
Alpha-1B adrenergic receptor: MNPDLDTGHNTSAPAQWGELKDANFTGPNQTSSNSTLPQLDVTRAISVGLVLGAFILFAIVGNILVILSVACNRHLRTPTNYFIVNLAIADLLLSFTVLPFSATLEVLGYWVLGRIFCDIWAAVDVLCCTASILSLCAISIDRYIGVRYSLQYPTLVTRRKAILALLSVWVLSTVISIGPLLGWKEPAPNDDKECGVTEEPFYVLFSSLGSFYIPLAVILVMYCRVYIVAKRTTKNLEAGVMKEMSNSKELTLRIHSKNFHEDTLSSTKAKGHNPRSSIAVKLFKFSREKKAAKTLGIVVGMFILCWLPFFIALPLGSLFSTLKPPDAVFKVVFWLGYFNSCLNPIIYPCSSKEFKRAFMRILGCQCRSGRRRRRRRRLGACAYTYRPWTRGGSLERSQSRKDSLDDSGSCMSGSQRTLPSASPSPGYLGRGAQPPLELCAYPEWKSGALLSLPEPPGRRGRLDSGPLFTFKLLGEPESPGTEGDASNGGCDATTDLANGQPGFKSNMPLAPGHF
In the case of B3, in the assay with α1 adrenergic receptor, the constitutive activity result is recorded as “constitutively active”.

B4: Ala293Glu mutant: α1 adrenergic receptor mutant at carboxyl end of IC3 (protein, UniProt P18841 1-515, looked up, variant A293E)
Alpha-1B adrenergic receptor: MNPDLDTGHNTSAPAQWGELKDANFTGPNQTSSNSTLPQLDVTRAISVGLVLGAFILFAIVGNILVILSVACNRHLRTPTNYFIVNLAIADLLLSFTVLPFSATLEVLGYWVLGRIFCDIWAAVDVLCCTASILSLCAISIDRYIGVRYSLQYPTLVTRRKAILALLSVWVLSTVISIGPLLGWKEPAPNDDKECGVTEEPFYALFSSLGSFYIPLAVILVMYCRVYIVAKRTTKNLEAGVMKEMSNSKELTLRIHSKNFHEDTLSSTKAKGHNPRSSIAVKLFKFSREKKAEKTLGIVVGMFILCWLPFFIALPLGSLFSTLKPPDAVFKVVFWLGYFNSCLNPIIYPCSSKEFKRAFMRILGCQCRSGRRRRRRRRLGACAYTYRPWTRGGSLERSQSRKDSLDDSGSCMSGSQRTLPSASPSPGYLGRGAQPPLELCAYPEWKSGALLSLPEPPGRRGRLDSGPLFTFKLLGEPESPGTEGDASNGGCDATTDLANGQPGFKSNMPLAPGHF
Take B4: in the assay with α1 adrenergic receptor, the constitutive activity result is reported as “constitutively active”.

B5: Cys128Phe mutant: α1 adrenergic receptor mutant in transmembrane domain III (protein, UniProt P18841 1-515, looked up, variant C128F)
Alpha-1B adrenergic receptor: MNPDLDTGHNTSAPAQWGELKDANFTGPNQTSSNSTLPQLDVTRAISVGLVLGAFILFAIVGNILVILSVACNRHLRTPTNYFIVNLAIADLLLSFTVLPFSATLEVLGYWVLGRIFCDIWAAVDVLFCTASILSLCAISIDRYIGVRYSLQYPTLVTRRKAILALLSVWVLSTVISIGPLLGWKEPAPNDDKECGVTEEPFYALFSSLGSFYIPLAVILVMYCRVYIVAKRTTKNLEAGVMKEMSNSKELTLRIHSKNFHEDTLSSTKAKGHNPRSSIAVKLFKFSREKKAAKTLGIVVGMFILCWLPFFIALPLGSLFSTLKPPDAVFKVVFWLGYFNSCLNPIIYPCSSKEFKRAFMRILGCQCRSGRRRRRRRRLGACAYTYRPWTRGGSLERSQSRKDSLDDSGSCMSGSQRTLPSASPSPGYLGRGAQPPLELCAYPEWKSGALLSLPEPPGRRGRLDSGPLFTFKLLGEPESPGTEGDASNGGCDATTDLANGQPGFKSNMPLAPGHF
Consider B5, for which the constitutive activity result with α1 adrenergic receptor is reported as “constitutively active”.

B6: Asn63Ala mutant: α1 adrenergic receptor mutant at conserved Asn63 (protein, UniProt P18841 1-515, looked up, variant N63A)
Alpha-1B adrenergic receptor: MNPDLDTGHNTSAPAQWGELKDANFTGPNQTSSNSTLPQLDVTRAISVGLVLGAFILFAIVGAILVILSVACNRHLRTPTNYFIVNLAIADLLLSFTVLPFSATLEVLGYWVLGRIFCDIWAAVDVLCCTASILSLCAISIDRYIGVRYSLQYPTLVTRRKAILALLSVWVLSTVISIGPLLGWKEPAPNDDKECGVTEEPFYALFSSLGSFYIPLAVILVMYCRVYIVAKRTTKNLEAGVMKEMSNSKELTLRIHSKNFHEDTLSSTKAKGHNPRSSIAVKLFKFSREKKAAKTLGIVVGMFILCWLPFFIALPLGSLFSTLKPPDAVFKVVFWLGYFNSCLNPIIYPCSSKEFKRAFMRILGCQCRSGRRRRRRRRLGACAYTYRPWTRGGSLERSQSRKDSLDDSGSCMSGSQRTLPSASPSPGYLGRGAQPPLELCAYPEWKSGALLSLPEPPGRRGRLDSGPLFTFKLLGEPESPGTEGDASNGGCDATTDLANGQPGFKSNMPLAPGHF
In the case of B6, the constitutive activity result with α1 adrenergic receptor is “constitutively active”.

B7: wild-type rat mu opioid receptor: wild-type rat mu opioid receptor expressed from an expression vector, comparator (protein, UniProt P33535 1-398, looked up)
Mu-type opioid receptor: MDSSTGPGNTSDCSDPLAQASCSPAPGSWLNLSHVDGNQSDPCGLNRTGLGGNDSLCPQTGSPSMVTAITIMALYSIVCVVGLFGNFLVMYVIVRYTKMKTATNIYIFNLALADALATSTLPFQSVNYLMGTWPFGTILCKIVISIDYYNMFTSIFTLCTMSVDRYIAVCHPVKALDFRTPRNAKIVNVCNWILSSAIGLPVMFMATTKYRQGSIDCTLTFSHPTWYWENLLKICVFIFAFIMPVLIITVCYGLMILRLKSVRMLSGSKEKDRNLRRITRMVLVVVAVFIVCWTPIHIYVIIKALITIPETTFQTVSWHFCIALGYTNSCLNPVLYAFLDENFKRCFREFCIPTSSTIEQQNSTRVRQNTREHPSTANTVDRTNHQLENLEAETAPLP
As for B7, the “Average Ligand Stimulated Activity (Light Emission)” value with rat mu opioid receptor (ligand DAMGO) is given as 87,461. Also, the “Average Basal Activity (Light Emission)” value with rat mu opioid receptor (no ligand) is on record as 8,436.

Source of the values: patent publication US20020147170A1 (priority 2000, published 2002).
